This test deals with T1, Recombinant hSIRPg-His (Sino Biologicals, reference 11828-H08H) (human, UniProt Q9P1W8 29-360).
T1 chain: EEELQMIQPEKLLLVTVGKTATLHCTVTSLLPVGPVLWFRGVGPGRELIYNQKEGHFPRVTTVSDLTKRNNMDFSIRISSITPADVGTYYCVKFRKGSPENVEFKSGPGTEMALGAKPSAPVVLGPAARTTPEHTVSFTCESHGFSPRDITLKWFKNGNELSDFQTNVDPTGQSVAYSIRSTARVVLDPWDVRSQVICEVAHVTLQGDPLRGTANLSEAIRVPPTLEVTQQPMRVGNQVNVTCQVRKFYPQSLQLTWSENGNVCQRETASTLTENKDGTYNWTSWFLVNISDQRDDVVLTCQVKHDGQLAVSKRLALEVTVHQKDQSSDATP
In words: Blitz (BLI).

B1: SIRP29 (antibody, V domains shown)
VH: EVQLQQSGAELVKPGASVKLSCTASGFNIKDYYIHWVQQRTEQGLEWIGRIDPEDGETKYAPKFQDKATITADTSSNTAYLHLSSLTSEDTAVYYCARWGAYWGQGTLVTVSS
VL: QIVLTQSPAIMSASPGEKVTLTCSASSSVSSSYLYWYQQKPGSSPKLWIYSTSNLASGVPARFSGSGSGTSYSLTISSMEAEDAASYFCHQWSSYPRTFGAGTKLELK
The term Kd denotes the equilibrium constant for the complex coming apart. Regarding B1, the Kd was determined as 5.3 nM.

B2: Kwar23 (antibody, V domains shown)
VH: EVQLQQSGAELVKPGASVKLSCTASGFNIKDYYIHWVQQRTEQGLEWIGRIDPEDGETKYAPKFQDKATITADTSSNTAYLHLSSLTSEDTAVYYCARWGAYWGQGTLVTVSS
VL: QIVLTQSPAIMSASPGEKVTLTCSASSSVSSSYLYWYQQKPGSSPKLWIYSTSNLASGVPARFSGSGSGTSYSLTISSMEAEDAASYFCHQWSSYPRTFGAGTKLELK
As for B2, the Kd turned out to be 2.14 nM.

(Values after patent US20190382483A1 (published 2019).)
